# T1: Fur (ferric uptake regulator) (Staphylococcus aureus) (UniProt A0A0H2XGT2)
# T1 sequence: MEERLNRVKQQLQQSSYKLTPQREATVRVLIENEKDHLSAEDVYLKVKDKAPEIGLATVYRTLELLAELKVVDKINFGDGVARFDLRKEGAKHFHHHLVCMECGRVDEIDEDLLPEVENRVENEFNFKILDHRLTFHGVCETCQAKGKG
# T2: purified S. aureus Fur (S. aureus) (UniProt P0A032)
# T2 sequence: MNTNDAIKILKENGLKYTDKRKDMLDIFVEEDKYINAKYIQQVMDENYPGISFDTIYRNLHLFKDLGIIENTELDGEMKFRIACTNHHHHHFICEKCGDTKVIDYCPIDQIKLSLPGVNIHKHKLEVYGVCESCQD
# B1: purified S. aureus Fpa (natural protein)
# chain: MAKQATMKNAALKQLTKDADEILHLIKVQLDNLTLPSCPLYEEVLDTQMFGLQKEVDFAVKLGLVDREDGKQIMLRLEKELSKLHEAFTLV
# What was measured:
# [1] = target: T1, Fur (ferric uptake regulator) (Staphylococcus aureus); experiment: EMSA
# [2] = target: T2, purified S. aureus Fur (S. aureus)
Molecule,binding [1],"EMSA: association of Fur (40 µM) with isdC operator DNA, Fpa titrated in (0-40 µM by the legend, 0-80 µM by the methods), with 100 µM MnCl2 [2]"
"CTTTAGTAAAATCATAAATAATAATGATTATCATTGTCAATATTTATTTTATAATCAATTTATTATTGTTATACGAAAATAGATGTGCTAGTATAATTGATAACCATTATCAATTGCAATGGTTAATC (double strand) [isdC operator (two Fur boxes), 128 bp PCR product]",binds,
B1,,20 µM

# — publication PMC11559061
